# Laboratory results taken from the nanobody polyreactivity screen of Harvey et al. (2022).
# Test: yeast display, Sf9 membrane polyspecificity reagent, FACS + sequencing; frameworks hold sequencing errors
# Method in brief: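 Polyreactivity labels are assigned by the sorting gate from which each nanobody was recovered. The gates were low and high (top ~1%), set on anti-HA fluorescence for expression and streptavidin fluorescence for reagent binding. Before sorting, galactose-induced (36–48 hours) yeast display cells were stained for 1 hour at 4 °C with 10% biotinylated, detergent-solubilized Sf9 membrane reagent.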
row,Sequence,polyreactivity (PSR sort gate)
1,QVQLVESGGGLVQAGGSLRLICAASGRTFTRYAMGWYRQAAGKERELVAAITSTGSTYYADSVKGRFTISRDNAKNTVYLQMNSLKPEDTAVYYCNKVGIRYYYGYDYWGQGTQVTVSS,high polyreactivity
2,QVQLVESGGGLVQAGGSLRLICAASGRTFWDYAMGWYRQAPGKERELVAAITASGTRTYYADSVKGRFTISRDNAKNTVFLQMNSLKPEDTAVYYCAAARIWWAHAYPTYVANDYWGQGTQVTVSS,high polyreactivity
3,QVQLVESGGGLVQAGGSLRLICAASGRTFYGYAMGWYRQAPGKERELVAAISTGGGRTYYADSVKGRFTISRDNAKNTVYLQMNSLKPEDTAVYYCAARRAYPHYRVDYWGPGTQVTVSS,high polyreactivity
4,QVQLVESGGGLVQAGGSLRLICAASGRTFYSKTMGWSRQAPGKEREFVAAIPSIVGSTYYADSVKGRFTISRDNAKITVYFKMNSLKPEDTAVYYCAVTDYYSYQLRYDSSGQGTQVTVSS,low polyreactivity
5,QVQLVESGGGLVQAGGSLRLICAASGRTFYSYAMGWYRQAPGKERELVASISSGGGTNYADSVKGRFTISRDNAKNTVYLQKNSLKPEDTAVYYCDVDPYPYRGYDYWGQGTQVTVSS,low polyreactivity
6,QVQLVESGGGLVQAGGSLRLICAASGRTFYVYAMAWYRQEPGKERELVAAISKSGGSTYYADSVKGRFTISRDNAKNSVYLPMNSLKPEDTAGYYCNRYRFVRQVRGGGLPYDYWGQGTQVTVSS,high polyreactivity
7,QVQLVESGGGLVQAGGSLRLICAASGRTIGRNAMRWSRQAPGKERELVAAISSSGGSTYYADSVKGRFTISRDKAKNTVYLQMNSLKPEDTAVYYCNARGWYGLRKYYYWGQGTQVTVSS,high polyreactivity
8,QVQLVESGGGLVQAGGSLRLICAASGRTIRYYAMGWYRQAPGKERELVAAITQNGGRTYYADSVKGRFTISRDNAKNTVYLQMNSLKPEDTAVYYCAKAFIQPGDKYDSWGQGTQVTVSS,high polyreactivity
9,QVQLVESGGGLVQAGGSLRLICAASGRTLGYNARGWYRQAPGKETELVAAISYGGGGTYYADSVKGRFTISRDNAKNTVYLQMNSLKPEDTAVYYCAKPRAFVGYNHWGQGTQVTVSS,low polyreactivity
10,QVQLVESGGGLVQAGGSLRLICAASGRTLSGYAMGWYRQAPGKDRELVAVITSGGSTYYADSVKGRFTISRDNAKNTVYLQMNSLKPEDTAVYYCAARGSRLYSSWRGVYWGQGTQVTVSS,high polyreactivity
11,QVQLVESGGGLVQAGGSLRLICAASGRTSYTYVMGWYRQAPGKERELVAAIRLSGGNTYYADSVKGRFTISRDNAKNTVYLQMNSLKPEDTAVYYCAAQYWRHRKAYGYWGQGSQVTVSS,high polyreactivity
12,QVQLVESGGGLVQAGGSLRLICAASGRTYDKYVMGWYRQAPGKERELVSAISFRGVRTYYADSVKGRFTISRDNAKNTFYLQKNSLKPEDTGVYYCAARFTFSAIIGPYGYWGQGTQVTVSS,high polyreactivity
13,QVQLVESGGGLVQAGGSLRLICAASGSIFAGNAMGWYRQAPGKERELVAAITWSGGSTYYADSVKGRFTISRDNAKNTVYLQMNSLKPEDTAVYYCAAPTQADVVGYDYWGQGTQVTVSS,low polyreactivity
14,QVQLVESGGGLVQAGGSLRLICAASGSIFDWNAMGWYRQAPGKERELVATISWDGGSTYYADSVKGRFTISRDNAKNTVYLQMNSLKPEDTAVYYCATVFTGKPAYYARTKYDYWGQGTQVNVSS,low polyreactivity
15,QVQLVESGGGLVQAGGSLRLICAASGSIFFPYDMGWYRQAPGKERELVASITRAGSTNYADSVKGRFTISRDNAKNTVYLQMNSLKPEDTAVYYCAARNYRQFEYGYWGQGTQVTVSS,low polyreactivity
16,QVQLVESGGGLVQAGGSLRLICAASGSIFGHNAMGWYRQAPGKERELVAAINASDGNTYYADSVKGRFTISRDNAKNTVYLQMNSLKPEDTAVYYCAAEGYFDHYYYYRVYSWGQGTQVTVSS,low polyreactivity
17,QVQLVESGGGLVQAGGSLRLICAASGSIFGLYAMGWYRPAPGKEREFVASITYSGGSTYYADSVKGRFTISRDNAKNTVYLQMNSLKPEDTAVYYCAAESYWGYDYWGQGTQVTVSS,high polyreactivity
18,QVQLVESGGGLVQAGGSLRLICAASGSIFGSSAMGWYRQAPGKERSTYYADSVKGRFTISRDNAKNTVYLQMNSLKPEDTAVYYCAADTYGYQGSAGGHWGQGTQVTVSS,low polyreactivity
19,QVQLVESGGGLVQAGGSLRLICAASGSIFIGNTMGWYRQAPGKERELVATIRRSGSRTYYADSVKGRFTISRDNAKNTVYLQMNSLKPEDPAVYYCNAEGVGRYSPVSHTFDYWGQGTQVTLSS,low polyreactivity
20,QVQLVESGGGLVQAGGSLRLICAASGSIFITNAMGWYRQAPGKEREMVAAISGRGGSTYYADSVKGRFTISRDNAKNTVYLQMNSLKPEDTAVYYCNAYSYRVSGYDYWGQGTQVTVSS,high polyreactivity
21,QVQLVESGGGLVQAGGSLRLICAASGSIFITYAMGWSRQAPGKERELVAAIRRGGRTNYADSVKGRFTISRDNAKNTVYLQMNSLKPEDTAVYYCAAEFHTGWPYYPDYAYDYWGQGTQVTVSS,low polyreactivity
22,QVQLVESGGGLVQAGGSLRLICAASGSIFKIYAMGWYRQAPGKERELVARITRRGGRTNYADSVKGRFTISRDNAKNTVYLQINSLKPEDTAVYYCAATVYPSVYGENHYGYWGQGTQVTVSS,high polyreactivity

row,Sequence,polyreactivity (PSR sort gate)
1,QVQLVESGGGLVQAGGSLRLICAASGSIFLFNAMGWYRQAPGKERQLVAAISKSGGSTHYADSVKGRFTISRDNAKNTVYLQMNSLKPEDSAVYYCAARVGDLGSQKTDSVYRVYYWGQGTQVTVSS,low polyreactivity
2,QVQLVESGGGLVQAGGSLRLICAASGSIFLLYDMGWYRQAPGKERELVAAITWSGGSTYYADSVKGRFTISRDNAKNTVYLQMNSLKPEDTAVYYCAADEPYPTAYEYWGQGTQVTVSS,low polyreactivity
3,QVQLVESGGGLVQAGGSLRLICAASGSIFLNYAMGWYRQAPGKERELVASLRRIGGRTFYADSVKGSFTISRDNAKNTVYLQMNSLKPEDTAVYYCAAEYYYGLTVEYWGQGTQVTVSS,high polyreactivity
4,QVQLVESGGGLVQAGGSLRLICAASGSIFPANVMGWYRQAPGKERELVAVISSSGGRTFYADSVKGRFTISRDNAKNTVYLQMNSLKPDDTAVYYCAATIYDYKRALKYYYWGLGTQVTVSS,high polyreactivity
5,QVQLVESGGGLVQAGGSLRLICAASGSIFQFYAMGWYRQAPGKERELVAVITTSGVSTYYADSVKGRFTISRDNAKNTDYLQMNSLKPEDTAVYYCAADDYYLAGDYWGQGTQVTVSS,low polyreactivity
6,QVQLVESGGGLVQAGGSLRLICAASGSIFQPYAMGWYRQAPGKERELVAAINGRGGSTHYADSVKGRFTISRDNAKNTVYLQMNSLKPEDTAVYYCAARYYRDYRWYTYAYDYWGQGTQVTVSS,high polyreactivity
7,QVQLVESGGGLVQAGGSLRLICAASGSIFRSYAMGWYRQAPGKERELVAPIDRSGGSTYYADSVKGRLTISRDYAKNTVYCQLNSLKPEDTAVYNSNKTPHFPRPGFNYWGLGTQVTVSS,low polyreactivity
8,QVQLVESGGGLVQAGGSLRLICAASGSIFRYYVKGWYRQAPGKERELVASISYSVGRTYYADSVKGRFTISRDYAKNTVYLQMNSLKPEDTAVYYCAADRYWPYYSAYYTSYRMDYWGQGTQVTVSS,high polyreactivity
9,QVQLVESGGGLVQAGGSLRLICAASGSIFSSYAMGWYRQAPGTGRELVASISRRGGSTYYADSVKGRFTISRDNAKNTVYLQMNSLKPEDTAVYYCNASGGPYRYYYWGQGTQVTVSS,low polyreactivity
10,QVQLVESGGGLVQAGGSLRLICAASGSIFTSNAMGWYRQAPGKERELVAAITSDGAITYADSVKGRFTISRDNAKNTVYLQMNSLKPEDTAVYYCATEIEYYVGSVADMGYWGQGTQVTVSS,low polyreactivity
11,QVQLVESGGGLVQAGGSLRLICAASGSIFVNNAMGWYRQAPGKERELVAAISRSGGSTYYADSVKGRFTISRDNAKNTVYLQMNSLKPEDTAVYYCATVHRSSTPPEFNYWGQGTQVTVSS,high polyreactivity
12,QVQLVESGGGLVQAGGSLRLICAASGSIFYNNDMGWYRQAPGKERELVAAINWNGGSTYYADSVKGRFTISRDNAKNTVYLQMNSLKPEDTAVYYCNAEPFWYNYGYDDDYWGQGTQVTVSS,high polyreactivity
13,QVQLVESGGGLVQAGGSLRLICAASGSILYKYAMGWYRQAPGKERELVAAISSRGGNTYYADSVKGRFTISRDNSKNTVYLQMNSLKPEDTAVYYCAADLWAGKYGEYDYWGQGTQVTVSS,high polyreactivity
14,QVQLVESGGGLVQAGGSLRLICAASGSTFDLYAMGWYRQAPGKESELVAAITRCGSTYYADSVKGRFTISRDNAKNTVYLQMNSLKPEDTAVYYCAASRYYNTVHNGGDYWGQGTQVTLSS,high polyreactivity
15,QVQLVESGGGLVQAGGSLRLICAASGSTFGDYDMGWYRQAPGKETELVAAISNGGSTYYADSVKGRFTISRDYAKNTVYLQMNSLKREETAVYYCNADNVEIRSTYEYGRYLYGYWGQGTQVTVSS,low polyreactivity
16,QVQLVESGGGLVQAGGSLRLICAASGSTFGFYGMGWYRQAPGKERELVASIDSRGDSTYADSVKGRFTISRDNAKKTVYVQMNSLKPEDTAVYYCAAESWYTWFDSWGQGTQVTVSS,low polyreactivity
17,QVQLVESGGGLVQAGGSLRLICAASGSTFPTYAMGWYRQAPGKERELVAAISTRGGSTYYADSVKGRFTISRDNAKNTVYLQMNSVKPEDTAVYYCATGKTVGRYHYEYWGQGTQVTVSS,low polyreactivity
18,QVQLVESGGGLVQAGGSLRLICAASGSTFQLTAMGWYIQAPGTEREFVASITDSGGRTYYADSVKGRFTISRDNANNTVYLQMNSLKPVDTAVYYCNTAGAAERRRAYDHDYWGQGTQVTVSS,high polyreactivity
19,QVQLVESGGGLVQAGGSLRLICAASGSTFSSYAMGLYIQAPGKEREFVAAINTDGGSTYYADSVKGRFTISRDNAKNTVYLQMNSLKPEDTAVYYCAADDISLAAHFDSWGQGTQVTVSS,low polyreactivity
20,QVQLVESGGGLVQAGGSLRLICAASGSTFVFYAMGWYRQAPGKERELYATISTGGSTYADSVKGRFTISRDNSKNTVYLQMNSLIPEDTAVYYCNARLRSFTLSDAEYEYWGQGTQETVSS,low polyreactivity
21,QVQLVESGGGLVQAGGSLRLICAASGSTNPRNAMGWYRQAPGKERELDADITSGGSTNYADSVKGRFTISRDNAKNTVYLQMNRLKPEDTAVYYCAADEQVNTQYVVWGDYWGQGTQVTVSS,low polyreactivity
